# Laboratory results: US20220119534A1 (DRAGONFLY THERAPEUTICS, published 2022)
# T1: mFc-hNKG2D (recombinant mFc-tagged human NKG2D dimer) (human, UniProt P26718 73-216)
# T1 construct: extracellular domain; Made in house; not shown: mouse Fc tag
# T1 sequence (looked up): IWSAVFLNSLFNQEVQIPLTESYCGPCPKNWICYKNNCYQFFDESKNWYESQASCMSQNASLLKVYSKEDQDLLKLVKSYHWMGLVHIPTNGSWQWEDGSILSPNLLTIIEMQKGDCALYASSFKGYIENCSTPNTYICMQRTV
# T2: Human CLEC12A-His (recombinant, K244 WT) (human, UniProt Q5QGZ9 65-265)
# T2 construct: Made in house (Dragonfly Tx); also called hCLEC12A; hCLEC12A-His; not shown: His tag
# T2 sequence: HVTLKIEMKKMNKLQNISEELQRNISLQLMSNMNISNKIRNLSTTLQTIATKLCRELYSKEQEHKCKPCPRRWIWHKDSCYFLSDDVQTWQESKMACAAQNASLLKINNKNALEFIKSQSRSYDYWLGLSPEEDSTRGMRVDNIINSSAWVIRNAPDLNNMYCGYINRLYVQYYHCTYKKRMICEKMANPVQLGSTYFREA
# T3: Human CLEC12A-K244Q-His (human, UniProt Q5QGZ9 65-265)
# T3 construct: also called hCLEC12A (Q244); CLEC12A (Q244); not shown: His tag
# T3 chain: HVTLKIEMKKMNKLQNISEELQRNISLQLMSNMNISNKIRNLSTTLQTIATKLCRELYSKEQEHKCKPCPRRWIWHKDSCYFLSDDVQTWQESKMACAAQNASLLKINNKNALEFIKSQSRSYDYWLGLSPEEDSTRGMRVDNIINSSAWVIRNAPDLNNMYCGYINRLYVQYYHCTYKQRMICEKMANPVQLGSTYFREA
# Legend:
# [1] = target: T1, mFc-hNKG2D (recombinant mFc-tagged …); experiment: SPR; after low pH hold
# [2] = target: T2, Human CLEC12A-His (recombinant, K244 WT); experiment: SPR, two-state fit (kd1); control (fully purified protein study)
# Experimental: (§1) Briefly, human Fc specific antibodies were covalently immobilized at a density ˜8000-10000 resonance units (RU) on carboxy methyl dextran matrix of a CM5 biosensor chip via amine-coupling chemistry to create an anti-hFc IgG chip. […] Association was monitored for 300 seconds and dissociation was monitored for 600 seconds. Surfaces were regenerated between cycles with three pulses of 10 mM glycine-HCl, pH 1.7 injected for 20 seconds at 100 μl/min. HBS-EP+ (1×) with 0.1 mg/ml BSA was used as running buffer throughout the experiment. Experiments were performed at physiological temperature of 37° C. To obtain kinetic rate constants and overall binding affinity, double-referenced data were fit to a two-state kinetic model using Biacore 8K Insight Evaluation software (Cytiva).
# [3] = target: T2, Human CLEC12A-His (recombinant, K244 WT); experiment: SPR, two-state fit; control sample
# [4] = target: T2, Human CLEC12A-His (recombinant, K244 WT); experiment: SPR, two-state fit
# Experimental: as §1
# [5] = target: T3, Human CLEC12A-K244Q-His; experiment: SPR, two-state fit
# Experimental: as §1
binder,measurement,setting,value
"AB0089 TriNKET (bispecific antibody, human IgG1, kappa, F3' format heterodimer of three chains; human IgG1 Fc with EW-RVT and Y349C/S354C mutations; also called AB0089 Lot AB0089-002; CLEC12A TriNKET AB0089) QLQLQESGPGLVKPSETLSLTCTVSGFSLTNYGLHWIRQPPGKCLEWIGVIWVGGATDYNPSLKSRVTISVDTSKNQFSLKLSSVQAADTAVYYCAKGDYGDTLDYWGQGTLVTVSSGGGGSGGGGSGGGGSGGGGSDIQMTQSPSSLSASVGDRVTITCHASQNINFWLSWYQQKPGKAPKLLIYEASNLHTGVPSRFSGSGSGTDFTLTISSLQPEDFATYYCQQSHSYPLTFGCGTKLEIKGSDKTHTCPPCPAPELLGGPSVFLFPPKPKDTLMISRTPEVTCVVVDVSHEDPEVKFNWYVDGVEVHNAKTKPREEQYNSTYRVVSVLTVLHQDWLNGKEYKCKVSNKALPAPIEKTISKAKGQPREPRVYTLPPCRDELTKNQVSLTCLVKGFYPSDIAVEWESNGQPENNYKTTPPVLVSDGSFTLYSKLTVDKSRWQQGNVFSCSVMHEALHNHYTQKSLSLSPG heavy: EVQLVESGGGLVKPGGSLRLSCAASGFTFSSYSMNWVRQAPGKGLEWVSSISSSSSYIYYADSVKGRFTISRDNAKNSLYLQMNSLRAEDTAVYYCARGAPIGAAAGWFDPWGQGTLVTVSSASTKGPSVFPLAPSSKSTSGGTAALGCLVKDYFPEPVTVSWNSGALTSGVHTFPAVLQSSGLYSLSSVVTVPSSSLGTQTYICNVNHKPSNTKVDKKVEPKSCDKTHTCPPCPAPELLGGPSVFLFPPKPKDTLMISRTPEVTCVVVDVSHEDPEVKFNWYVDGVEVHNAKTKPREEQYNSTYRVVSVLTVLHQDWLNGKEYKCKVSNKALPAPIEKTISKAKGQPREPQVCTLPPSRDELTENQVSLTCLVKGFYPSDIAVEWESNGQPENNYKTTPPVLDSDGSFFLYSWLTVDKSRWQQGNVFSCSVMHEALHNHYTQKSLSLSPG light: DIQMTQSPSSVSASVGDRVTITCRASQGISSWLAWYQQKPGKAPKLLIYAASSLQSGVPSRFSGSGSGTDFTLTISSLQPEDFATYYCQQGVSFPRTFGGGTKVEIKRTVAAPSVFIFPPSDEQLKSGTASVVCLLNNFYPREAKVQWKVDNALQSGNSQESVTEQDSKDSTYSLSSTLTLSKADYEKHKVYACEVTHQGLSSPVTKSFNRGEC",Kd,[1],941 nM
same,koff,[1],0.15 s⁻¹
same,kon,[1],159000 M⁻¹ s⁻¹
same,koff,[2],0.0272 s⁻¹
same,Kd,[3],0.9 nM
same,Kd,[4],0.6 nM
same,Kd,[5],1.17 nM
